Assay results: a protein production outcome set (Wang et al. 2014)

Assay: label from the status in PepcDB records

Row | Sequence | protein production
1 | MSINLRSSGCSSPISATLERRLDSEVQTRANNVSFEQTKEKIRKMLEKVELSVSAYDTSWVAMVPSPSSQNAPLFPQCVKWLLDNQHEDGSWGLDNHDHQSLKKDVLSSTLASILALKKWGIGERQINKGLQFIELNSALVTDETIQKPTGFDIIFPGMIKYARDLNLTIPLGSEVVDDMIRKRDLDLKCDSEKFSKGREAYLAYVLEGTRNLKDWDLIVKYQRKNGSLFDSPATTAAAFTQFGNDGCLRYLCSLLQKFEAAVPSVYPFDQYARLSIIVTLESLGIDRDFKTEIKSILDETYRYWLRGDEEICLDLATCALAFRLLLAHGYDVSYDPLKPFAEESGFSDTLEGYVKNTFSVLELFKAAQSYPHESALKKQCCWTKQYLEMELSSWVKTSVRDKYLKKEVEDALAFPSYASLERSDHRRKILNGSAVENTRVTKTSYRLHNICTSDILKLAVDDFNFCQSIHREEMERLDRWIVENRLQELKFARQKLAYCYFSGAATLFSPELSDARISWAKGGVLTTVVDDFFDVGGSKEELENLIHLVEKWDLNGVPEYSSEHVEIIFSVLRDTILETGDKAFTYQGRNVTHHIVKIWLDLLKSMLREAEWSSDKSTPSLEDYMENAYISFALGPIVLPATYLIGPPLPEKTVDSHQYNQLYKLVSTMGRLLNDIQGFKRESAEGKLNAVSLHMKHERDNRSKEVIIESMKGLAERKREELHKLVLEEKGSVVPRECKEAFLKMSKVLNLFYRKDDGFTSNDLMSLVKSVIYEPVSLQEESLT | failed
2 | MAILSYISATSTTPPIPQDQSPNSRLPTKIILPNKKPEKWSTGVAPGEYGGPPTTTKLRKYWGGEKEDPITSTDLIWNRDFMDQMKKLFDDPNDSSLDPSPSKEKSSGFLSFSRVMSLDSMDVDLSKELASSSKSVVKNRLDTSKSEAKKQMSKAIVSPKWKLAPTRREQEKWDRATKAATGGSDVMFRELRRPRGDPEVQAAKDREQYFKLKNKIQVLTLGIGGVGLVSAYISYTPEIALSFGAGLLGSLAYMRMLGNSVDAMADGARGVAKGAANQPRLLVPVVLVMIFNRWNAILVPEYGFMHLELIPMLVGFFTYKIATFFQAIEEAISITTQKPESISPDTQASD | not failed
3 | MVRVDQNLFNEVMYLLDELSQDITVPKNVRKVAQDSKAKLSQENESLDLRCATVLSMLDEMANDPNVPAHGRTDLYTIISKLEALSKS | not failed
4 | MRVLKKFFSGDNLLERVLILIVGLVASLILVIKSADLFVDNLVDLGSSLGISEVILGVTASAIGTSLPEFGSALIASLSGSTDIGVGCVIGSNIWNIAGILGISSVVAGIIETNADGLKRDFSATLVTGLILLFFMFFGNIGKIAALVMVLTYAVYLWRLIKAQKTYSDENSGKNEREPLDLKKLALTVVGFAGLVIGCRILVYTGVELADIAGIPAMIMGLFTLAIGTSIPELVVTLSSAVKGLHELSIGTVLGSNTFNILVGIGVPALIAPVPVERLSLTFDAPVMILVTVLLVLLIRQGDMKLKRTGGIVLLAVYISYVIMRLFVLA | failed
5 | CTRAVYLGPDRMVVTGRTMDWKEDIMSNIYVFPRGMQRAGHNKEKTVNWTSKYGSVIATGYDIGTCDGMNEKGLVASLLFLPESVYSLPGDTRPAMGISIWTQYVLDNFATVREAVDEMKKETFRIDAPRMPNGGPESTLHMAITDETGNTAVIEYLDGKLSIHEGKEYQVMTNSPRYELQLAVNDYWKEVGGLQMLPGTNRSSDRFVRASFYIHAIPQTADAKIAVPSVLSVMRNVSVPFGINTPEKPHISSTRWRSVSDQKNKVYYFESTLTPNLFWLDLKKIDFSPKAGVKKLSLTKGEIYAGDAVKDLKDSQS | not failed
6 | MPIQRREFIAAIGTGALATTAGCAQSGEGSGQTEAETEAESGGGGQPGVAGETLTLTTTTSTYDTGLLDEIHPDFEDMYGVSVDAVAQGTGAALESARNGDSDIVMVHARGLEDDFMRNGYGINRRDLMFNDFVIVGPEDDPAGIQGMGSATEALTTIAESESQFVSRGDNSGTHTKELNLWEAAGTEPGGNWYQETGTGMGEALNIANQQGAYTLSDRGTYISQRSEIDLVILVQGPIEDGPEILANPYGIMAVNPGVHDNANYDLAMAYIGWITSPGTQDAISNYQVNGEQLFFPEAVSEDPNFQQYVPEGWSSDAGE | failed
7 | MSDSAIGVGYAADNPGWLIGMSETQERLQRLRAQAASLVFYAGILESATGRAFLELLDALSHQQPLAAVTAYSTWLGHLLASRQSWPQWLMHHIRSDDNPFSRQAQFAIASSLPEVWQQSACQDLQTLQQLASAPPRLLAPMVQALADLPTPPPHWLEETRDREAQWAETEDWAMLLPDLIQHYQQRGVGFFNRYWALRWQQGQLHGIEHPDPIPLSDLAGYELQKETLKRNTEFLLAGLPAQNVLLYGSCGAGKSSMVKALINAYGDRGLRLIEVGKADLRELPQILDQLRESALSFIVFVDDLSFEEDDETFKALKVVLEGGLTARPPNVVVYATSNRRHLVREYFDERPNPTEANEVHAWDSVQEKLSFSDRFGLTLTFEPADQDTYLAIVRHLASEVGLTMPLETLEFRARQWATRHNGRSGRTARQFMDWLIAEQSLPNPL | failed
8 | EQQGKFDWMLRDLYDGVPGIEMIVVLSADGLRIARYSGDPDAADRVAAACAGLQSLASAVSQEIPTSDGDMKMVLIEMNGGYFYLMAAGPNAYLAVLSDVRCEPGRMGLSMADLVARIGPHLTSPARR | failed
9 | FGKVTSSQQVAQRLLQEMKGLQQEHLICIYLNTKNDIIQQKTIFKGSLNQSIAHPREIFREAVKYSSARILLAHNHPSGNPTPSPQDIQFTKRMEECGEMMGIQLLDHIILGDSGYISLREENFFASE | failed
10 | SESQSEEIDCNDKDLFKAVDAALKKYNSQNQSNNQFVLYRITEATKTVGSDTFYSFKYEIKEGDCPVQSGKTWQDCEYKDAAKAATGECTATVGKRSSTKFSVATQTCQITPAEGPVVTAQYDCLGCVHPISTQSPDLEPILRHG | not failed
11 | MRATEDHTIFDRGVGQRDQLQRLWTPYRMNYLAEAPVKRDPNSSASPAQPFTEIPQLSDEEGLVVARGKLVYAVLNLYPYNPGHLMVVPYRRVSELEDLTDLESAELMAFTQKAIRVIKNVSRPHGFNVGLNLGTSAGGSLAEHLHVHVVPRWGGDANFITIIGGSKLEHHHHHH | failed
12 | MNLHSRQDEGPIPSGNPYALSLSMSAILAPFKKIYDLIDGFVLIMLTAIGIALIAPEIGTGDGPLRLGVVTNLGVALVFFLHGAALSRDKLVAGAKHWRLHVFVQSFTYIVFPIVGVLLMLSLRNTLPPELLLGVFYLCALPSTVSSSVAMTSMARGNVPGAIFNATISGLIGMALTPLLMGLVISASGASMPLGRALMGVALQLLLPFALGQAARPLIGNWLAKKKQITNKIDRGVIVLIVYSSFCDATAAGLWHQYHWQTIGAVMGIAAVLLFVILGTTTFTARRLGFSVEDEITAVFCGSKKSLANGIPMAKILFAGHPALGLLVLPLMVYHQLQLIVCSVIAARYANRDDVETREAVRA | failed
13 | MAEGKPDEQLFQLLSGLLQQVESLTNTEEVELRSKIEALGLEVTKVPSKSAQHLNEVEIAKELDKLSAKLDDVDEMISSAIASDPQVQTLLSGTADVWMPVITAGAEERLNFTASLADDDDLSNKETTTDNTSSS | not failed
14 | MITKFPPQWQEKLDQVAFTHLTPIQEQAFQPIVDGKNFLGISPTGTGKTLAYVFPNLLALTPKKSQQLLILAPNTELAGQIFEVTKDWAQPLGLTAQLFISGTSQKRQIERLKKGPEILIGTPGRIFELIKLKKIKMMSVNTIVLDEYDELLGDSQYDFVQKISHYVPRDHQMVYMSATNKVDQTSLAPNTFCIDLSEQTNDAIQHFYLMVDKRERTDLLRKFTNIPHFRALVFFNSLSDLGATEERLQYNGAAAVSLASDINVKFRKTILEKFKSHQLSLLLATDLVARGIDIDNLDYVIHFDVARDKENYTHRAGRTGRMGKSGIVITFVSHPEDLKKLKKFAKVSEISLKNQQLHFIN | failed
15 | MIDLDPRLAADTHPVTQWPLSQVRLMDDVRFPWLVLIPDRPGLVEIFDLPAEDQDKMWREVAHAAATLKTLSGAHKINIGALGNQVSQLHIHIIARRPDDGAWPGPVWGVGERQRYDQAELAEFLSGLRAQLIAPGQGIVEEGQTR | failed
16 | MNTIRPVSDLRNNFADISKIVHQSQQPVFLTKNGYGDMVVMSMETFEDMKFESDIYSKLQEAEKQASLTGKRFSSKDVFEEIQKLISELEHHHHHH | not failed
17 | MDAARFPADARVRVLARRFPPYHRDSPCLAILDRFLHDPTLSAAAVVDDAMRPVGLIDRYSLVEQFLHPYSRDLYHKHSIAAFMDPEPVIVEADSSIDDLSRIIIDAGMRHMVSGFIVTEDGLYLGIGSGHDLFEEVANRKQNHLYHLAHYDPLTSLPNRLLLNDRLKRACLRGQRGGYRIALLFIDLDRFKLVNDTLGHAAGDQLLQGVAGRFAACVRKVDTVARLGGDEFTVLLEPVQGPDEALAVAAKLAQSLERPFLIQNHEITTSASIGVVLFPEHDATVEGLMRKADAAMYCAKREGRNRFALFTEEMNSTVVERVTLESYLNAALEKGEFCCHFQPQMATADDRIVGVEALLRWTNPVLGRVPPLKFIPVAEDTGLILPLGLWALETACAQQVRWLSQGLPPLRMAVNISPLQFRNREFCDQVRAIVQRTGIRAEHLELELTESAVMADAESSVGILRELRDSGIRLAIDDFGTGYSSLSYLRKFPLDRLKIDRSFVSGIDRIPANELIVKAIVALGGSLGLDVIAEGVETPEELECIERCGCSEYQGFRLSEPLTAEDFAHWFEDSGYVLEHHHHHH | failed
18 | MSLIRWLVERWLEFMGNHPFLFGTLAILIVLFFIFEGQRNGRKISPQSLGILIKAKNAQLIDLRDAKDFREGHISGSRNIPYSQITSHVDELKASERPLVFICNLGQVAGSALQKIGHADSYRLDGGISNWKAQGLPLVKAKTKA | failed
19 | MLNRVFLEGEIESSCWSVKKTGFLVTIKQMRFFGERLFTDYYVIYANGQLAYELEKHTKKYKTISIEGILRTYLERKSEIWKTTIEIVKIFNPKNEIVIDYKEI | not failed
20 | MKAAEKYAKDVVAGKILVCKWIMLLAQRHLDDLAVSKRKDFPYKFDPAKAEKVAKFLQLLPHTKGKWGGKKQLIKLEPWQLFSVCVPFGWVRKKDGTRRYRTILVFVPRKNGKSIIGGGVGLYMFVADGEFGAEVYSGATTEKQAWEVFRPAKLMVERTDDLREHYGVDVNASNMVVLADGSRFEPVIGKPGDGSSPSCSVVDEYHEHQDSTLYDTMETGMGAREQPIMLVITTAGSSIGGPCHQLIRDSERMLEGVIDRPDLWPALYTIDQGDDWTSEIALRKANPNFGISVAEDFLLARQRDAMQSATKQATFRTKHLNEWVGAKNAWLNMLRWKEAPVRKSLAELEGRSCYGSLDLASKIDIAANLLIFPPHGDDPFWHIHARYYLPEARVLEELDSNTARYREFDALGLLTLTDGEVTDFEVIKEDMREFAGRFDIRAYAYDPWQATQLAQEMDAEGLPMVELRQTVQNLSEPMKEVEALVLQRKLAHGDCPVLTWMASNVVAKLDVKDNIYPNKERPENKIDGMVSLITGCAVAIKLGIDDSGHFDDFLASPIVVG | failed
21 | MQMLSRIHRETCSQDVNECGMKPRPCQHRCVNTHGSYKCFCLSGHMLMPDATCVNSRTCAMINCQYSCEDTEEGPQCLCPSSGLRLAPNGRDCLDIDECASGKVICPYNRRCVNTFGSYYCKCHIGFELQYISGRYDCIDINECTMDSHTCSHHANCFNTQGSFKCKCKQGYKGNGLRCSAIPENSVKEVLRAPGTIKDRIKKLLAHKNSMKKKAKIKNVTPEPTRTPTPKVNLQPFNYEEIVSRGGNSHGGKKGNEEKMKEGLEDEKREEKALKNDIEERSLRGDVFFPKVNEAGEFGLILVQRKALTSKLEHKDLNISVDCSFNHGICDWKQDREDDFDWNPADRDNAIGFYMAVPALAGHKKDIGRLKLLLPDLQPQSNFCLLFDYRLAGDKVGKLRVFVKNSNNALAWEKTTSEDEKWKTGKIQLYQGTDATKSIIFEAERGKGKTGEIAVDGVLLVSGLCPDSLLSVDD | failed
22 | MNSLSLFSPSFTDSVFDALDRSLGPNFGVFAPIKNASCGMPSVDIRETEKAYVMEVDLPGYSEKDVEISLKDRLMTISSSKKEEKEDKGAEYIIKERSSRHFMRRFTLPEDINSDEVSAKFENGVLVVNIPRKPDTQPKQIEIKTA | failed
